From the supplement of paper PMC5998384 come the findings set out here.

Data set [1] relates to HeLa Kyoto. The experiment in a line: solubility in G1/S (NP-40 vs SDS abundance) (log2 ratio); higher = more soluble. Particulars: cell cycle stage: G1/S.
In data set [2] the test system is HeLa Kyoto. Nature of the data set: thermal stability score vs G1/S (z-score of summed log2 fold changes over temperatures); higher = more thermally stable than in G1/S.
Data set [3] relates to HeLa Kyoto. The experiment in a line: melting temperature (median over replicates), in situ; higher = more thermally stable.
For data set [4], the system named is HeLa Kyoto. Nature of the data set: solubility change mitosis vs G1/S (difference of NP-40 vs SDS log2 ratios) (log2 ratio difference); higher = more soluble in mitosis.
[5] abbreviates: cell cycle stage: early G1 (4.5 h after nocodazole release).
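Throughout, for melting temperature (median over replicates), in situ: HeLa Kyoto cells synchronized by double thymidine or nocodazole block, proteins quantified by TMT10plex mass spectrometry, three independent biological replicates.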
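Throughout, for solubility change mitosis vs G1/S (difference of NP-40 vs SDS log2 ratios): synchronized HeLa Kyoto cells (double thymidine block for G1/S, nocodazole release for mitosis), protein amounts in NP-40 versus SDS lysates quantified by mass spectrometry, three biological replicates.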
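Throughout, for solubility in G1/S (NP-40 vs SDS abundance): HeLa Kyoto cells arrested at G1/S by double thymidine block, proteins quantified by TMT10plex mass spectrometry in mild NP-40 versus SDS extracts, three biological replicates.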
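Throughout, for thermal stability score vs G1/S (z-score of summed log2 fold changes over temperatures): synchronized HeLa Kyoto cells, proteins quantified by TMT10plex mass spectrometry, three biological replicates, mitosis taken 0.5 h after nocodazole release, G1/S directly after double thymidine block.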

As to “MAAPMTPAARPEDYEAALNAALADVPELARLLEIDPYLKPYAVDFQRRYKQFSQILKNIGENEGGIDKFSRGYESFGVHRCADGGLYCKEWAPGAEGVFLTGDFNGWNPFSYPYKKLDYGKWELYIPPKQNKSVLVPHGSKLKVVITSKSGEILYRISPWAKYVVREGDNVNYDWIHWDPEHSYEFKHSRPKKPRSLRIYESHVGISSHEGKVASYKHFTCNVLPRIKGLGYNCIQLMAIMEHAYYASFGYQITSFFAASSRYGTPEELQELVDTAHSMGIIVLLDVVHSHASKNSADGLNMFDGTDSCYFHSGPRGTHDLWDSRLFAYSSWEILRFLLSNIRWWLEEYRFDGFRFDGVTSMLYHHHGVGQGFSGDYSEYFGLQVDEDALTYLMLANHLVHTLCPDSITIAEDVSGMPALCSPISQGGGGFDYRLAMAIPDKWIQLLKEFKDEDWNMGDIVYTLTNRRYLEKCIAYAESHDQALVGDKSLAFWLMDAEMYTNMSVLTPFTPVIDRGIQLHKMIRLITHGLGGEGYLNFMGNEFGHPEWLDFPRKGNNESYHYARRQFHLTDDDLLRYKFLNNFDRDMNRLEERYGWLAAPQAYVSEKHEGNKIIAFERAGLLFIFNFHPSKSYTDYRVGTALPGKFKIVLDSDAAEYGGHQRLDHSTDFFSEAFEHNGRPYSLLVYIPSRVALILQNVDLPN [GBE1]”, the “solubility in G1/S (log2)” value in the data set on HeLa Kyoto [1] was -0.184. Further, the thermal stability score in the data set on HeLa Kyoto [2] (setting [5]) is -0.0259; in the data set on HeLa Kyoto [2] (cell cycle stage: mitosis), 0.998. Besides, the values for the melting temperature in the data set with HeLa Kyoto [3] (cell cycle stage: G1/S) and with HeLa Kyoto [3] (cell cycle stage: mitosis) were 49.7 °C and 49.6 °C, respectively. Further, the “solubility change mitosis (log2)” value in the data set with HeLa Kyoto [4] is -0.104.

Consider “MDESALLDLLECPVCLERLDASAKVLPCQHTFCKRCLLGIVGSRNELRCPECRTLVGSGVEELPSNILLVRLLDGIKQRPWKPGPGGGSGTNCTNALRSQSSTVANCSSKDLQSSQGGQQPRVQSWSPPVRGIPQLPCAKALYNYEGKEPGDLKFSKGDIIILRRQVDENWYHGEVNGIHGFFPTNFVQIIKPLPQPPPQCKALYDFEVKDKEADKDCLPFAKDDVLTVIRRVDENWAEGMLADKIGIFPISYVEFNSAAKQLIEWDKPPVPGVDAGECSSAAAQSSTAPKHSDTKKNTKKRHSFTSLTMANKSSQASQNRHSMEISPPVLISSSNPTAAARISELSGLSCSAPSQVHISTTGLIVTPPPSSPVTTGPSFTFPSDVPYQAALGTLNPPLPPPPLLAATVLASTPPGATAAAAAAGMGPRPMAGSTDQIAHLRPQTRPSVYVAIYPYTPRKEDELELRKGEMFLVFERCQDGWFKGTSMHTSKIGVFPGNYVAPVTRAVTNASQAKVPMSTAGQTSRGVTMVSPSTAGGPAQKLQGNGVAGSPSVVPAAVVSAAHIQTSPQAKVLLHMTGQMTVNQARNAVRTVAAHNQERPTAAVTPIQVQNAAGLSPASVGLSHHSLASPQPAPLMPGSATHTAAISISRASAPLACAAAAPLTSPSITSASLEAEPSGRIVTVLPGLPTSPDSASSACGNSSATKPDKDSKKEKKGLLKLLSGASTKRKPRVSPPASPTLEVELGSAELPLQGAVGPELPPGGGHGRAGSCPVDGDGPVTTAVAGAALAQDAFHRKASSLDSAVPIAPPPRQACSSLGPVLNESRPVVCERHRVVVSYPPQSEAELELKEGDIVFVHKKREDGWFKGTLQRNGKTGLFPGSFVENI [SH3RF1]”, for which, in the data set with HeLa Kyoto [1], the “solubility in G1/S (log2)” value came out at 0.517. For the same substance, the values for the thermal stability score in the data set on HeLa Kyoto [2] (setting [5]) and with HeLa Kyoto [2] (cell cycle stage: mitosis) were 0.34 and 1.14, respectively. Also, the melting temperature in the data set on HeLa Kyoto [3] (cell cycle stage: G1/S) was determined as 49.3 °C; in the data set on HeLa Kyoto [3] (cell cycle stage: mitosis), 51 °C. Besides, the “solubility change mitosis (log2)” value in the data set with HeLa Kyoto [4] is -0.13.

Take PLXND1: in the data set on HeLa Kyoto [1], the “solubility in G1/S (log2)” value was found to be 0.0061. Moreover, the thermal stability score in the data set with HeLa Kyoto [2] (setting [5]) amounted to 0.367; with HeLa Kyoto [2] (cell cycle stage: mitosis), 0.672. For the same substance, the melting temperature was found to be 49.5 °C in the data set on HeLa Kyoto [3] (cell cycle stage: G1/S) and 48.7 °C in the data set on HeLa Kyoto [3] (cell cycle stage: mitosis). Moreover, the “solubility change mitosis (log2)” value with HeLa Kyoto [4] was -0.0638.

With “MAEFLDDQETRLCDNCKKEIPVFNFTIHEIHCQRNIGMCPTCKEPFPKSDMETHMAAEHCQVTCKCNKKLEKRLLKKHEETECPLRLAVCQHCDLELSILKLKEHEDYCGARTELCGNCGRNVLVKDLKTHPEVCGREGEEKRNEVAIPPNAYDESWGQDGIWIASQLLRQIEALDPPMRLPRRPLRAFESDVFHNRTTNQRNITAQVSIQNNLFEEQERQERNRGQQPPKEGGEESANLDFMLALSLQNEGQASSVAEQDFWRAVCEADQSHGGPRSLSDIKGAADEIMLPCEFCEELYPEELLIDHQTSCNPSRALPSLNTGSSSPRGVEEPDVIFQNFLQQAASNQLDSLMGLSNSHPVEESIIIPCEFCGVQLEEEVLFHHQDQCDQRPATATNHVTEGIPRLDSQPQETSPELPRRRVRHQGDLSSGYLDDTKQETANGPTSCLPPSRPINNMTATYNQLSRSTSGPRPGCQPSSPCVPKLSNSDSQDIQGRNRDSQNGAIAPGHVSVIRPPQNLYPENIVPSFSPGPSGRYGASGRSEGGRNSRVTPAAANYRSRTAKAKPSKQQGAGDAEEEEEE [TRAFD1]”, the “solubility in G1/S (log2)” value with HeLa Kyoto [1] amounted to 0.132. Further, the thermal stability score with HeLa Kyoto [2] (setting [5]) is -1.71; in the data set on HeLa Kyoto [2] (cell cycle stage: mitosis), -2.27. Besides, the melting temperature turned out to be 53.8 °C in the data set with HeLa Kyoto [3] (cell cycle stage: G1/S) and 53.9 °C with HeLa Kyoto [3] (cell cycle stage: mitosis). For the same substance, the “solubility change mitosis (log2)” value in the data set with HeLa Kyoto [4] was -0.0897.

As for “MKMTVDFEECLKDSPRFRAALEEVEGDVAELELKLDKLVKLCIAMIDTGKAFCVANKQFMNGIRDLAQYSSNDAVVETSLTKFSDSLQEMINFHTILFDQTQRSIKAQLQNFVKEDLRKFKDAKKQFEKVSEEKENALVKNAQVQRNKQHEVEEATNILTATRKCFRHIALDYVLQINVLQSKRRSEILKSMLSFMYAHLAFFHQGYDLFSELGPYMKDLGAQLDRLVVDAAKEKREMEQKHSTIQQKDFSSDDSKLEYNVDAANGIVMEGYLFKRASNAFKTWNRRWFSIQNNQLVYQKKFKDNPTVVVEDLRLCTVKHCEDIERRFCFEVVSPTKSCMLQADSEKLRQAWIKAVQTSIATAYREKGDESEKLDKKSSPSTGSLDSGNESKEKLLKGESALQRVQCIPGNASCCDCGLADPRWASINLGITLCIECSGIHRSLGVHFSKVRSLTLDTWEPELLKLMCELGNDVINRVYEANVEKMGIKKPQPGQRQEKEAYIRAKYVERKFVDKYSISLSPPEQQKKFVSKSSEEKRLSISKFGPGDQVRASAQSSVRSNDSGIQQSSDDGRESLPSTVSANSLYEPEGERQDSSMFLDSKHLNPGLQLYRASYEKNLPKMAEALAHGADVNWANSEENKATPLIQAVLGGSLVTCEFLLQNGANVNQRDVQGRGPLHHATVLGHTGQVCLFLKRGANQHATDEEGKDPLSIAVEAANADIVTLLRLARMNEEMRESEGLYGQPGDETYQDIFRDFSQMASNNPEKLNRFQQDSQKF [ACAP2]”, the “solubility in G1/S (log2)” value with HeLa Kyoto [1] is -0.0242. The thermal stability score in the data set with HeLa Kyoto [2] (setting [5]) came out at 0.348; in the data set with HeLa Kyoto [2] (cell cycle stage: mitosis), 0.369. The substance further returned a melting temperature with HeLa Kyoto [3] (cell cycle stage: G1/S) of 49.8 °C. Further, the “solubility change mitosis (log2)” value in the data set with HeLa Kyoto [4] was -0.215.
